# Read-outs that look alike come from different tables or passages of the source.
# How the values were obtained:
# [1] = target: T1, recombinant human TFPI (tissue factor pathway inhibitor) (human, UniProt P10646 29-304); assay: cell-based or functional assay
# [2] = target: T1, recombinant human TFPI (tissue factor …); assay: cell-based or functional assay; remark: listed apart in the source
# [3] = target: T1, recombinant human TFPI (tissue factor …); assay: cell-based or functional assay; remark: listed apart in the source
# [4] = target: T1, recombinant human TFPI (tissue factor …); assay: cell-based or functional assay; remark: listed apart in the source
# [5] = target: T1, recombinant human TFPI (tissue factor …); assay: cell-based or functional assay; remark: listed apart in the source
# [6] = target: T1, recombinant human TFPI (tissue factor …); assay: cell-based or functional assay; remark: listed apart in the source
# [7] = target: T1, recombinant human TFPI (tissue factor …); assay: cell-based or functional assay; remark: listed apart in the source
# [8] = target: T1, recombinant human TFPI (tissue factor …); assay: cell-based or functional assay; remark: listed apart in the source
# [9] = target: T1, recombinant human TFPI (tissue factor …); assay: cell-based or functional assay; remark: listed apart in the source
# [10] = target: T1, recombinant human TFPI (tissue factor …); assay: SPR, Biacore T-200; IgG captured on protein A (CM5), TFPI as analyte
# Protocol: Dissociation of the TFPI associated with the antibody was induced by running 10 mM glycine-HCl (pH 1.5) at a flow rate for 30 seconds. The affinities in terms of kinetic rate constants (Kₒₙ and Koff) and equilibrium dissociation constant (KD) were evaluated using Biacore T-200 evaluation software, and the results are shown in Table 24 below.
binder,measurement,setting,value
"clone 1023 (antibody, V domains shown, scFv on yeast at selection; human IgG4/kappa IgG as purified) VH: EVQLVESGGGLVKPGGSLRLSCAASGFTFSSYAMNWVRQAPGKGLEWVGTITTGGSYTYYADSVDGRFTISRDNAKNSLYLQMNSLRAEDTAVYYCARQDGNFLMDYWGQGTLVTVSS VL: DVVMTQTPLSLPVTLGQPASISCKSSQSLLDIDGKTYLNWLQQRPGQSPKRLIYLVSKLDSGVPDRFTGSGSGTDFTLKISRVEAEDVGVYYCWQGTHFPFTFGQGTKVEIKR","% of Normalized, TF/FVIIa/FX complex assay, Ab 3.13 nM",[1],6%
same,"% of Normalized, TF/FVIIa/FX complex assay, Ab 6.25 nM",[1],8.3%
same,"% of Normalized, TF/FVIIa/FX complex assay, Ab 12.5 nM",[1],10.3%
same,"% of Normalized, TF/FVIIa/FX complex assay, Ab 25 nM",[1],43.7%
same,"% of Normalized, TF/FVIIa/FX complex assay, Ab 50 nM",[1],80.3%
same,"% of Normalized, TF/FVIIa/FX complex assay, Ab 100 nM",[1],99.8%
same,"FXa assay % of FXa alone, 2.5 nM Ab, 10 nM TFPI",[2],8.4%
same,"FXa assay % of FXa alone, 5 nM Ab, 10 nM TFPI",[2],40.8%
same,"FXa assay OD, 2.5 nM Ab, 10 nM TFPI",[2],0.0605
same,"FXa assay OD, 5 nM Ab, 10 nM TFPI",[2],0.293
same,"FXa assay OD, 10 nM Ab, 10 nM TFPI",[2],0.605
same,"FXa assay % of FXa alone, 2.5 nM Ab, 10 nM TFPI",[3],8.7%
same,"FXa assay % of FXa alone, 5 nM Ab, 10 nM TFPI",[3],47.3%
same,"FXa assay % of FXa alone, 10 nM Ab, 10 nM TFPI",[3],89.6%
same,"FXa assay % of FXa alone, 20 nM Ab, 10 nM TFPI",[3],101%
same,"FXa assay OD, 2.5 nM Ab, 10 nM TFPI",[3],0.042
same,"FXa assay OD, 5 nM Ab, 10 nM TFPI",[3],0.229
same,"FXa assay OD, 10 nM Ab, 10 nM TFPI",[3],0.433
same,"FXa assay OD, 20 nM Ab, 10 nM TFPI",[3],0.488
same,"FXa assay % of FXa alone, 2.5 nM Ab, 10 nM TFPI",[4],8.9%
same,"FXa assay % of FXa alone, 5 nM Ab, 10 nM TFPI",[4],63.1%
same,"FXa assay % of FXa alone, 10 nM Ab, 10 nM TFPI",[4],85.3%
same,"FXa assay % of FXa alone, 20 nM Ab, 10 nM TFPI",[4],88.5%
same,"FXa assay OD, 2.5 nM Ab, 10 nM TFPI",[4],0.0715
same,"FXa assay OD, 5 nM Ab, 10 nM TFPI",[4],0.509
same,"FXa assay OD, 10 nM Ab, 10 nM TFPI",[4],0.688
same,"FXa assay OD, 20 nM Ab, 10 nM TFPI",[4],0.714
same,"FXa assay % of FXa alone, 2.5 nM Ab, 10 nM TFPI",[5],7.9%
same,"FXa assay % of FXa alone, 5 nM Ab, 10 nM TFPI",[5],37.7%
same,"FXa assay % of FXa alone, 10 nM Ab, 10 nM TFPI",[5],84.3%
same,"FXa assay % of FXa alone, 20 nM Ab, 10 nM TFPI",[5],91.7%
same,"FXa assay OD, 2.5 nM Ab, 10 nM TFPI",[5],0.064
same,"FXa assay OD, 5 nM Ab, 10 nM TFPI",[5],0.306
same,"FXa assay OD, 10 nM Ab, 10 nM TFPI",[5],0.684
same,"FXa assay OD, 20 nM Ab, 10 nM TFPI",[5],0.745
same,"FXa assay % of FXa alone, 2.5 nM Ab, 10 nM TFPI",[6],6.7%
same,"FXa assay % of FXa alone, 5 nM Ab, 10 nM TFPI",[6],26.6%
same,"FXa assay % of FXa alone, 10 nM Ab, 10 nM TFPI",[6],82.3%
same,"FXa assay % of FXa alone, 20 nM Ab, 10 nM TFPI",[6],84%
same,"FXa assay OD, 2.5 nM Ab, 10 nM TFPI",[6],0.051
same,"FXa assay OD, 5 nM Ab, 10 nM TFPI",[6],0.203
same,"FXa assay OD, 10 nM Ab, 10 nM TFPI",[6],0.626
same,"FXa assay OD, 20 nM Ab, 10 nM TFPI",[6],0.639
same,"FXa assay % of FXa alone, 2.5 nM Ab, 10 nM TFPI",[7],5.2%
same,"FXa assay % of FXa alone, 5 nM Ab, 10 nM TFPI",[7],8%
same,"FXa assay % of FXa alone, 10 nM Ab, 10 nM TFPI",[7],52.7%
same,"FXa assay % of FXa alone, 20 nM Ab, 10 nM TFPI",[7],78.4%
same,"FXa assay OD, 2.5 nM Ab, 10 nM TFPI",[7],0.045
same,"FXa assay OD, 5 nM Ab, 10 nM TFPI",[7],0.0695
same,"FXa assay OD, 10 nM Ab, 10 nM TFPI",[7],0.459
same,"FXa assay OD, 20 nM Ab, 10 nM TFPI",[7],0.682
same,"FXa assay % of FXa alone, 2.5 nM Ab, 10 nM TFPI",[8],8.1%
same,"FXa assay % of FXa alone, 5 nM Ab, 10 nM TFPI",[8],16.2%
same,"FXa assay % of FXa alone, 10 nM Ab, 10 nM TFPI",[8],80.9%
same,"FXa assay % of FXa alone, 20 nM Ab, 10 nM TFPI",[8],92.8%
same,"FXa assay OD, 2.5 nM Ab, 10 nM TFPI",[8],0.096
same,"FXa assay OD, 5 nM Ab, 10 nM TFPI",[8],0.193
same,"FXa assay OD, 10 nM Ab, 10 nM TFPI",[8],0.963
same,"FXa assay OD, 20 nM Ab, 10 nM TFPI",[8],1.1
same,"FXa assay % of FXa alone, 2.5 nM Ab, 10 nM TFPI",[9],7.3%
same,"FXa assay % of FXa alone, 5 nM Ab, 10 nM TFPI",[9],25.2%
same,"FXa assay % of FXa alone, 10 nM Ab, 10 nM TFPI",[9],83.6%
same,"FXa assay % of FXa alone, 20 nM Ab, 10 nM TFPI",[9],85.5%
same,"FXa assay OD, 2.5 nM Ab, 10 nM TFPI",[9],0.06
same,"FXa assay OD, 5 nM Ab, 10 nM TFPI",[9],0.208
same,"FXa assay OD, 10 nM Ab, 10 nM TFPI",[9],0.691
same,"FXa assay OD, 20 nM Ab, 10 nM TFPI",[9],0.707
same,Kd,[10],0.0301 nM

# Reference: patent publication US20180030151A1 (MOGAM INSTITUTE FOR BIOMEDICAL RESEARCH, published 2018)
